The values that follow come from US20120035244A1 (REGENTS OF THE UNIVERSITY OF MICHIGAN, published 2012).

Sequences and labels used below:
B2: ERG, TMPRSS2:ERG gene fusion product (TMPRSS2 exon 1 fused to ERG1 exon 2) (other, human, UniProt P11308 33-479, looked up)
chain: MTASSSSDYGQTSKMSPRVPQQDWLSQPPARVTIKMECNPSQVNGSRNSPDECSVAKGGKMVGSPDTVGMNYGSYMEEKHMPPPNMTTNERRVIVPADPTLWSTDHVRQWLEWAVKEYGLPDVNILLFQNIDGKELCKMTKDDFQRLTPSYNADILLSHLHYLRETPLPHLTSDDVDKALQNSPRLMHARNTGGAAFIFPNTSVYPEATQRITTRPDLPYEPPRRSAWTGHGHPTPQSKAAQPSPSTVPKTEDQRPQLDPYQILGPTSSRLANPGSGQIQLWQFLLELLSDSSNSSCITWEGTNGEFKMTDPDEVARRWGERKSKPNMNYDKLSRALRYYYDKNIMTKVHGKRYAYKFDFHGIAQALQPHPPESSLYKYPSDLPYMGSYHAHPQKMNFVAPHPPALPVTSSSFFAAPNPYWNSPTGGIYPNTRLPTSHMPSHLGTYY
notes: Untagged fusion product: endogenous in VCaP cells and in ERG fusion-positive human prostate cancer tissues; no tag stated; also called TMPRSS-ERG gene fusion product; endogenous gene fusion product

Assay [1] has as its target B2. The assay is described as follows: ERG immunoprecipitation from VCaP cells, Western blot (FIG. 1b). Background: A western blot detects proteins with antibodies after separation by electrophoresis.
Assay [2] addresses ATR (human, UniProt Q13535 1-2644). The assay is described as follows: ERG immunoprecipitation from VCaP cells, Western blot (FIG. 8b).

ATR, sequence (Q13535 whole entry): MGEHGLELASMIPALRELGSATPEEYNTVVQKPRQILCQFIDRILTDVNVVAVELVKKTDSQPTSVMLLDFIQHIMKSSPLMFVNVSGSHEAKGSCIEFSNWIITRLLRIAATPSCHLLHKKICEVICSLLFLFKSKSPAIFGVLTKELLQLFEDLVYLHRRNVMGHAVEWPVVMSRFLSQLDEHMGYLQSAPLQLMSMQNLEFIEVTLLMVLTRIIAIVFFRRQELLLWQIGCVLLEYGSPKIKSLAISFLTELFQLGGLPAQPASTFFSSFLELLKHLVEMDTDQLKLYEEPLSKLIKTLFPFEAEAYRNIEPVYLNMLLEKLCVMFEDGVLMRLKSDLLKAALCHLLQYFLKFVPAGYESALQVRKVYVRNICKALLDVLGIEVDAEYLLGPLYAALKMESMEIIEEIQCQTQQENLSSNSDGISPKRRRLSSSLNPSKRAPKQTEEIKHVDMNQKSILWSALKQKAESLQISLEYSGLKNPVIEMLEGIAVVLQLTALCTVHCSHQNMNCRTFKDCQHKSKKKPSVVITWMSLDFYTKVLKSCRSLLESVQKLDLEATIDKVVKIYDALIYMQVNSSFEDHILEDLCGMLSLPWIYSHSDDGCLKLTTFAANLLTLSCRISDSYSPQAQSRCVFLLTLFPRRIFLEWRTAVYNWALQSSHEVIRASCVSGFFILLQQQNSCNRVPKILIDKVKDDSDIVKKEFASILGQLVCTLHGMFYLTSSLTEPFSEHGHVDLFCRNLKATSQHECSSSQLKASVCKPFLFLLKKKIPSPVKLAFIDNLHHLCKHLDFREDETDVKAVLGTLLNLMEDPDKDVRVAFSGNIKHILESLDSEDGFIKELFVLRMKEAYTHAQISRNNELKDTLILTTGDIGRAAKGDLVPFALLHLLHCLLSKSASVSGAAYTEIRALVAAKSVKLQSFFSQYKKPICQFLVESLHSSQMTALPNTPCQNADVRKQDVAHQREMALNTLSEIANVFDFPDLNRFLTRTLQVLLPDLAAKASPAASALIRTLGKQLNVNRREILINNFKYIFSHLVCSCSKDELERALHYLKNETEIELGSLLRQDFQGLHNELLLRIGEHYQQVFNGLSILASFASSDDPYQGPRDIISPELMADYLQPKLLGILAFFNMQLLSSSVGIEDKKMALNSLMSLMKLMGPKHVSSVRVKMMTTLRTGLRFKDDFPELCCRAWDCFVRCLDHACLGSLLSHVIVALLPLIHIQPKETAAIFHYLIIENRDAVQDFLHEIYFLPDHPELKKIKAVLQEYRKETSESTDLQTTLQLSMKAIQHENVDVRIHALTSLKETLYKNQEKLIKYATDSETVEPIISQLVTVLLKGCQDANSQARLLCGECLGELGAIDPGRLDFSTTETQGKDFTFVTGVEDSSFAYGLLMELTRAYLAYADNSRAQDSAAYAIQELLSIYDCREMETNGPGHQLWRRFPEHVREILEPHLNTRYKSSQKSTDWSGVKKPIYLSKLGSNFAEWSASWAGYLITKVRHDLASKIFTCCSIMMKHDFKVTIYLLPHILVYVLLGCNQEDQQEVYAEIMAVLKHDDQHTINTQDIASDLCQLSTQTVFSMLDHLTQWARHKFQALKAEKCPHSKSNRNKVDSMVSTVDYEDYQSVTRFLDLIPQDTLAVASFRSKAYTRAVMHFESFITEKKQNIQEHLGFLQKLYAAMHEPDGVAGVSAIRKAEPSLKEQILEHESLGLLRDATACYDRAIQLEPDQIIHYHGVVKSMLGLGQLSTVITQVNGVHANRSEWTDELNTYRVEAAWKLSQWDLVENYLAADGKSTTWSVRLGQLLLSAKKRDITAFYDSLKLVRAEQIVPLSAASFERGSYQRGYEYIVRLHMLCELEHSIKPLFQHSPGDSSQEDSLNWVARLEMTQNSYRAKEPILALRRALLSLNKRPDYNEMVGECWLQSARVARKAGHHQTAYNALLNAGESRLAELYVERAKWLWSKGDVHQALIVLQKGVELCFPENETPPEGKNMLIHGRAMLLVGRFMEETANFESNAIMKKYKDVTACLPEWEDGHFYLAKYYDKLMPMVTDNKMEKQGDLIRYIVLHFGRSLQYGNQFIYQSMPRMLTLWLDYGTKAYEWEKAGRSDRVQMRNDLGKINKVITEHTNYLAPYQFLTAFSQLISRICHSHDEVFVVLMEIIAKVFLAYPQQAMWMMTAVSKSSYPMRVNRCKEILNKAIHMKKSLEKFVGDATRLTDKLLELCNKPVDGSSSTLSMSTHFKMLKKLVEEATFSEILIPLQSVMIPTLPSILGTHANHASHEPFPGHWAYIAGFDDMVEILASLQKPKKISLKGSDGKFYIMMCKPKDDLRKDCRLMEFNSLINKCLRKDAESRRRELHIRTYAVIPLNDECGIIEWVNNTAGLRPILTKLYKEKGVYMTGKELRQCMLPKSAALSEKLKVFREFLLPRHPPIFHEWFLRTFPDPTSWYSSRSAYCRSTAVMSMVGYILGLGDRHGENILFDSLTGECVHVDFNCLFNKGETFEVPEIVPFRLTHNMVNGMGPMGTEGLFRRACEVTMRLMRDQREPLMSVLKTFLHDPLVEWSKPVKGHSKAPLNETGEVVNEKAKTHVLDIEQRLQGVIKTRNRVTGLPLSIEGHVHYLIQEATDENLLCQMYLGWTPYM

B1: XRCC4 (other, human, UniProt Q13426 1-336, looked up)
chain: MERKISRIHLVSEPSITHFLQVSWEKTLESGFVITLTDGHSAWTGTVSESEISQEADDMAMEKGKYVGELRKALLSGAGPADVYTFNFSKESCYFFFEKNLKDVSFRLGSFNLEKVENPAEVIRELICYCLDTIAENQAKNEHLQKENERLLRDWNDVQGRFEKCVSAKEALETDLYKRFILVLNEKKTKIRSLHNKLLNAAQEREKDIKQEGETAICSEMTADRDPVYDESTDEESENQTDLSGLASAAVSKDDSIISSLDVTDIAPSRKRRQRMQRNLGTEPKMAPQENQLQEKENSRPDSSLPETSKKEHISAENMSLETLRNSSPEDLFDEI
In the case of B1, the binding result in assay [1] is reported as “no binding”.

Turning to B2, the binding result in assay [2] is “no binding”.
